Here are results for one protein from publication PMC9121654 (Biochemical and Biophysical Research Communications, 2022).

The data set deals with the molecule itself. The data set is described as follows: SEC.

B1: GYINVG-ZYG11B485-728 fusion protein (other)
chain: GYINVGAQLGTELFIVRQLLQIVKQKTNQNSVDTTLKFTLSALWNLTDESPTTCRHFIENQGLELFMRVLESFPTESSIQQKVLGLLNNIAEVQELHSELMWKDFIDHISSLLHSVEVEVSYFAAGIIAHLISRGEQAWTLSRSQRNSLLDDLHSAILKWPTPECEMVAYRSFNPFFPLLGCFTTPGVQLWAVWAMQHVCSKNPSRYCSMLIEEGGLQHLYNIKDHEHTDPHVQQIAVAILDSLEKHIVR
Consider B1, for which the “stoichiometry N” value came to 2.

Broadly, the stoichiometry N is a count of units in the complex or per binding partner.
